Key:
choline transporter = test: Brain uptake of Cy5.5-labeled n(Nimo) after pre-injection of choline-transporter inhibitor; assay type: in vivo, mice; conditions: 1.25, 2.5 or 5 μg/kg intraperitoneal 20 mins before n(Nimo); 4 hours after injection
Procedure: The BBB penetration of the nanocapsules can be attributed to their transcytosis mediated by the choline and acetylcholine receptors. Glioma-bearing mice were intraperitoneally injected with 1.25, 2.5 or 5 μg/kg of choline-transporter inhibitor, hemicholinium-3 (HC-3), 20 mins prior to the injection of Cy5.5-labeled n(Nimo). FIGS. 8A and 8B depict the in-vivo bioluminescent images of the orthotopic U87-EGFRwt glioma xenograft mice and the ex-vivo fluorescent images of the brains 4 hours after injection. […] This method provides an effective antibody delivery strategy for brain tumor treatment.

[1] = Brain fluorescence after intravenous injection of fluorescence-labeled BSA conjugates; assay type: in vivo, Balb/c mice; conditions: 5.0 mg/kg intravenous, one day after injection
Procedure: Protein conjugates were synthesized by conjugating polymer, poly(2-methacryloyloxyethyl phosphorylcholine) (PMPC), to fluorescence-labeled bovine serum albumin (BSA). The BSA conjugates were injected to Balb/c mice via intravenously at a dose of 5.0 mg/kg. One date after the intravenous injection, fluorescence intensity of the mouse brains was compared.

[2] = parameters: species or system rhesus macaque monkey; conditions: rhesus monkey, in vivo
Procedure: To evaluate the CNS delivery efficiency, Rituximab nanoparticles were administrated to non-human primates (rhesus macaque monkey) at a dose of 5.0 mg/kg via intravenous injection. After intravenous administration, plasma was collected at 1, 2, 3, 5, 7, 10, 14 and 17 days post injection, and CSF was collected at day 3, 10 and 17. […] In sharp contrast, Rituximab in CSF was undetectable by week 2 for the monkey administrated with native Rituximab.

In the case of `C[N+]1(C)CCOC(O)(c2ccc(-c3ccc(C4(O)C[N+](C)(C)CCO4)cc3)cc2)C1.[Br-].[Br-]` (centres unmarked) [HC-3, hemicholinium-3], the “effect on fluorescent intensity of glioma-bearing brain after Cy5.5-labeled n(Nimo)” value (choline transporter) is reported as “significantly reduces the fluorescent intensity”.

With “BSA conjugates: poly(2-methacryloyloxyethyl phosphorylcholine) (PMPC) conjugated to fluorescence-labeled bovine serum albumin” the “brain fluorescence intensity relative to mice injected with PBS” value [1] was 6 times and the “brain fluorescence intensity relative to mice injected with native BSA” value [1] was 4 times.

With Rituximab the “Rituximab in CSF” value [2] was “undetectable” and the “CSF concentration compared with n-Rituximab” value ([2]; iv) was “significantly lower CSF concentration”.
